PMC12151148

Tests used:
AGS3-TPR (1–405) (mouse) [1] = assay: ITC; 25°C; 50 mM Tris (pH 8.0), NaCl raised to 300 mM for AGS3-TPR or AGS3-L, 1 mM EDTA; one protein (0.2 mM) injected into another (0.02 mM); one-site binding model
FL-LGN (mouse) = assay: ITC; 25°C; 50 mM Tris (pH 8.0), 100 mM NaCl, 1 mM EDTA; one protein (0.2 mM) injected into another (0.02 mM); one-site binding model
FL-AGS3 (mouse) = assay: as above
[2] = target: FL-AGS3 + Gαi3⋅GDP (mouse | human) (UniProt P08754); assay: as above
[3] = target: FL-LGN + Gαi3⋅GDP (mouse | human) (UniProt P08754); assay: as above
AGS3-TPR (1–405) (mouse) [4] = assay: SEC-MALS; called SLS; HELEOS II (Wyatt); 100 μl of purified sample at about 10 μM
LGN-TPR (1–409) (mouse) = assay: as above
AGS3-L (−23–405) (mouse) = assay: as above
FL-LGN-4E (mouse) = assay: as above
FL-AGS3-L-4E (mouse) = assay: as above

Sequence of FL-LGN + Gαi3⋅GDP (mouse | human) (P08754 whole entry, looked up): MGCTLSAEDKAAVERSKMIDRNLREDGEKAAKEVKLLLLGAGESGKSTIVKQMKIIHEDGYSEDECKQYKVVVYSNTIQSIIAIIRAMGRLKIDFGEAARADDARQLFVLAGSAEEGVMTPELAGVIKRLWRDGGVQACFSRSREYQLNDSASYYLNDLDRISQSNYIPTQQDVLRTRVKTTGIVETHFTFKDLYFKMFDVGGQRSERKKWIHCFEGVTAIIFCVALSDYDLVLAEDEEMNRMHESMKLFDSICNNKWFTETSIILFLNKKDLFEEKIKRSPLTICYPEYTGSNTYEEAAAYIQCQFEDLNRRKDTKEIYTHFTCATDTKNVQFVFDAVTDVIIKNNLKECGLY
Sequence of FL-AGS3 + Gαi3⋅GDP (mouse | human) (P08754 whole entry, looked up): as above

Row | Kd (AGS3-TPR (1–405) (mouse) [1]) [nM] | Kd (FL-LGN (mouse)) [nM] | Kd (FL-AGS3 (mouse)) [nM] | Kd [2] [nM] | Kd [3] [nM] | stoichiometry N (NuMA per AGS3-TPR (1:1)) (AGS3-TPR (1–405) (mouse) [4]) | stoichiometry N (NuMA per LGN-TPR (3:3)) (LGN-TPR (1–409) (mouse)) | stoichiometry N (NuMA per AGS3-L (3:3)) (AGS3-L (−23–405) (mouse)) | stoichiometry N (NuMA per FL-LGN-4E (2:2)) (FL-LGN-4E (mouse)) | stoichiometry N (NuMA per FL-AGS3-L-4E (1:1)) (FL-AGS3-L-4E (mouse)) | Binder
1 | 290 | 3920 | 2270 | 2290 | 2620 |  |  |  |  |  | WGLWGAQESRRLCCVGPDRCGQALLQIGINMMALPGGRHLDSVPLQEQR (domain or fragment) [Insc (18–66)]
2 |  |  |  |  |  | 1 | 1 | 1 |  |  | NuMA (1847–1914) (domain or fragment) GSPDYGNSALLSLPGYRPTTRSSARRSQAGVSSGAPPGRNSFYMGTCQDEPEQLDDWNRIAELQQRNR
3 | 220 |  |  |  |  |  |  |  |  |  | NSFYMGTCQDEPEQLDDWNRIAELQQR (domain or fragment) [NuMA (1886–1912)]
4 |  | 3130 | 3610 | 2280 | 2240 |  |  |  | 1 | 1 | NuMA (1808–2001) (domain or fragment) KLDVEEPDSANSSFYSTRSAPASQASLRATSSTQSLARLGSPDYGNSALLSLPGYRPTTRSSARRSQAGVSSGAPPGRNSFYMGTCQDEPEQLDDWNRIAELQQRNRVCPPHLKTCYPLESRPSLSLGTITDEEMKTGDPQETLRRASMQPIQIAEGTGITTRQQRKRVSLEPHQGPGTPESKKATSCFPRPMT
